Laboratory results reported in US20230140797A1 (published 2023).
Residue numbers refer to the chain shown, from its start. Like-named read-outs stand apart in the source and are kept apart here. Blank lines part the entries; values can stand above or below the binder they belong to.

Experiments:
[1] = biological target: T1, human FcγRIIa type R extracellular domain with C-terminal His tag (human, UniProt P12318 34-217); assay: SPR
T1 sequence (looked up): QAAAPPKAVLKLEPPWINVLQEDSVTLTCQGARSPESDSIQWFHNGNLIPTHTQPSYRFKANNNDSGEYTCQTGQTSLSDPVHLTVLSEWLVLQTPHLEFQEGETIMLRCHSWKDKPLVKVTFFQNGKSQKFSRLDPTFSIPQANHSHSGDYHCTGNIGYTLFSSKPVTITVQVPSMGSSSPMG

[2] = biological target: T2, human FcγRIIIa type V extracellular domain with C-terminal His tag (human, UniProt P08637 17-208); assay: SPR
T2 sequence (P08637 17-208 F176V): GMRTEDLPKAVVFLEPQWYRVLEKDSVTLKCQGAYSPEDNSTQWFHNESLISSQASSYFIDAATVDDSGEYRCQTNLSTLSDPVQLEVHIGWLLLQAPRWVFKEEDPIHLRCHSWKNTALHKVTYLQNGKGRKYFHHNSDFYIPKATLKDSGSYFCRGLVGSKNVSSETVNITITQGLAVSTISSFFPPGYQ

[3] = biological target: human FcγRIa extracellular domain with C-terminal His tag (human, UniProt P12314 16-292); assay: SPR
Target sequence in this assay (P12314 16-292): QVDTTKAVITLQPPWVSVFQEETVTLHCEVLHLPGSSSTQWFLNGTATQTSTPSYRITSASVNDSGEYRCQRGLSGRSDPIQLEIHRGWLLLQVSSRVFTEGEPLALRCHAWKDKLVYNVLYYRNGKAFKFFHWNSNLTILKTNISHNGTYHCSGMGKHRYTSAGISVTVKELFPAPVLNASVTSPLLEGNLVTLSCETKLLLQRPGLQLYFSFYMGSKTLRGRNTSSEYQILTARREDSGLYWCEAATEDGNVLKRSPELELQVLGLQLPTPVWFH

[4] = biological target: T3, human FcγRIIb extracellular domain with C-terminal His tag (human, UniProt P31994 43-217); assay: SPR
T3 sequence (looked up): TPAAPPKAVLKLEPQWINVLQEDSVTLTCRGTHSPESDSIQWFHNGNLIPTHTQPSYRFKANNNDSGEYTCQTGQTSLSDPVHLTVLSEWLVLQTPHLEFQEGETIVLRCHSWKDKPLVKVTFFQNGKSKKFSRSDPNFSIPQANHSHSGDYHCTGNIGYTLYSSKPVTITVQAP

[5] = biological target: T3, human FcγRIIb extracellular domain with …; assay: SPR; remark: listed apart in the source
[6] = biological target: T4, human FcγRIIb extracellular domain with C-terminal His tag (human, UniProt P31994 43-217); assay: ratio of SPR KD values
T4 sequence (looked up): T3 sequence (looked up)

[7] = biological target: human FcγRIa extracellular domain with C-terminal His tag (human, UniProt P12314 16-292); assay: SPR; remark: listed apart in the source
Target sequence in this assay (P12314 16-292): as the sequence (P12314 16-292) above

[8] = biological target: T4, human FcγRIIb extracellular domain with …; assay: SPR; remark: listed apart in the source
[9] = biological target: T5, human FcγRIIa type H extracellular domain with C-terminal His tag (human, UniProt P12318 34-217); assay: SPR
T5 sequence (looked up): T1 sequence (looked up) with R134H

[10] = biological target: human FcγRIIIa type V extracellular domain with C-terminal His tag (human, UniProt P08637 17-208); assay: SPR; remark: listed apart in the source
Target sequence in this assay (P08637 17-208 F176V): as the sequence (P08637 17-208 F176V) above

[11] = biological target: T3, human FcγRIIb extracellular domain with …; assay: SPR; remark: listed apart in the source
[12] = biological target: T6, human FcγRIIa type H extracellular domain with C-terminal His tag (human, UniProt P12318 34-217); assay: SPR; remark: listed apart in the source
T6 sequence (looked up): T1 sequence (looked up) with R134H

[13] = biological target: T7, human FcγRIIa type R extracellular domain with C-terminal His tag (human, UniProt P12318 34-217); assay: SPR; remark: listed apart in the source
T7 sequence (looked up): T1 sequence (looked up)

[14] = biological target: T8, human FcγRIIa type H extracellular domain with C-terminal His tag (human, UniProt P12318 34-217); assay: SPR; remark: listed apart in the source
T8 sequence (looked up): T1 sequence (looked up) with R134H

[15] = biological target: human FcγRIIIa type V extracellular domain with C-terminal His tag (human, UniProt P08637 17-208); assay: SPR; remark: listed apart in the source
Target sequence in this assay (P08637 17-208 F176V): as above

[16] = biological target: T9, human FcγRIIb extracellular domain with C-terminal His tag (human, UniProt P31994 43-217); assay: SPR Biacore, ratio of KDs
T9 sequence (looked up): T3 sequence (looked up)

[17] = biological target: T10, human FcγRIIa type H extracellular domain with C-terminal His tag (human, UniProt P12318 34-217); assay: SPR Biacore, KD by Equation 2
T10 sequence (looked up): T1 sequence (looked up) with R134H

[18] = biological target: human FcγRIa extracellular domain with C-terminal His tag (human, UniProt P12314 16-292); assay: SPR; remark: listed apart in the source
Target sequence in this assay (P12314 16-292): as the sequence (P12314 16-292) above

[19] = biological target: T3, human FcγRIIb extracellular domain with …; assay: SPR; remark: listed apart in the source
[20] = biological target: T11, human FcγRIIb extracellular domain with C-terminal His tag (human, UniProt P31994 43-217); assay: ratio of SPR KDs
T11 sequence (looked up): T3 sequence (looked up)

[21] = biological target: T11, human FcγRIIb extracellular domain with …; assay: ratio of SPR KDs; remark: listed apart in the source
[22] = biological target: T12, human FcγRIIa type R extracellular domain with C-terminal His tag (human, UniProt P12318 34-217); assay: SPR Biacore, kinetic fit
T12 sequence (looked up): T1 sequence (looked up)

[23] = biological target: T13, human FcγRIIa type R (131Arg) extracellular domain with C-terminal His tag (human, UniProt P12318 34-217); assay: SPR
T13 sequence (looked up): T1 sequence (looked up)

[24] = biological target: T14, human FcγRIIa type H (131His) extracellular domain with C-terminal His tag (human, UniProt P12318 34-217); assay: SPR
T14 sequence (looked up): T1 sequence (looked up) with R134H

[25] = biological target: T13, human FcγRIIa type R (131Arg) …; assay: ratio of SPR KDs
[26] = biological target: T2, human FcγRIIIa type V extracellular …; assay: SPR; remark: listed apart in the source

B2: IL6R-BP253/IL6R-L (antibody, human IgG1, kappa)
heavy: QVQLQESGPGLVKPSETLSLTCAVSGHSISHDHAWSWVRQPPGEGLEWIGFISYSGITNYNPSLQGRVTISRDNSKNTLYLQMNSLRAEDTAVYYCARSLARTTAMDYWGEGTLVTVSSASTKGPSVFPLAPSSKSTSGGTAALGCLVKDYFPEPVTVSWNSGALTSGVHTFPAVLQSSGLYSLSSVVTVPSSSLGTQTYICNVNHKPSNTKVDKKVEPKSCDKTHTCPPCPAPELLGGPSVFLFPPKPKDTLMISRTPEVTCVVVDVEHEDPEVKFNWYVDGVEVHNAKTKPREEQYNSTYRVVSVLTVLHQDWLNGKEYKCKVSNKAFPAPIEKTISKAKGQPREPQVYTLPPSRDELTKNQVSLTCLVKGFYPSDIAVEWESNGQPENNYKTTPPVLDSDGSFFLYSKLTVDKSRWQQGNVFSCSVMHEALHNHYTQESLSLSP
light: not shown
Kd [2]: 3.8 µM

B4: IL6R-BP199/IL6R-L (antibody, human IgG1, kappa)
heavy: B2 heavy with E235D, P240D, E269S, K328A, F330L, A332R
light: not shown
KD (IIb) of the parent polypeptide/KD (IIb) of the altered polypeptide [6]: 6.3 fold | Kd [7]: 0.0064 µM | Kd [8]: 0.49 µM | Kd [9]: 28 µM | Kd [10]: 61 µM

B6: IL6R-BP181/IL6R-L (antibody, human IgG1, kappa)
heavy: B2 heavy with E235D, P240D, E269S, P273G, K328A, F330L, A332K
light: not shown
Kd [12]: 28 µM

B9: IL6R-BP540/IL6R-L (antibody, human IgG1, kappa)
heavy: B2 heavy with G239D, P240D, V266I, E269S, H270E, P273G, E274P, Y298D, F330L, A332R
light: not shown
Kd [14]: 4.8 µM | KD (IIaH)/KD (IIb) [4]: 803 | KD (IIaR)/KD (IIb) [5]: 36.8

B10: IL6R-BP176/IL6R-L (antibody, human IgG1, kappa)
heavy: B2 heavy with E235D, P240D, E269S, K328D, F330L, A332K
light: not shown
Kd [15]: 0.054 µM

B12: IL6R-BP535/IL6R-L (antibody, human IgG1, kappa)
heavy: QVQLQESGPGLVKPSETLSLTCAVSGHSISHDHAWSWVRQPPGEGLEWIGFISYSGITNYNPSLQGRVTISRDNSKNTLYLQMNSLRAEDTAVYYCARSLARTTAMDYWGEGTLVTVSSASTKGPSVFPLAPSSKSTSGGTAALGCLVKDYFPEPVTVSWNSGALTSGVHTFPAVLQSSGLYSLSSVVTVPSSSLGTQTYICNVNHKPSNTKVDKKVEPKSCDKTHTCPPCPAPDLLGDDSVFLFPPKPKDTLMISRTPEVTCVVIDVGEEDGEVKFNWYVDGVEVHNAKTKPREEQDNSTYRVVSVLTVLHQDWLNGKEYKCKVSNKGLPRPIEKTISKAKGQPREPQVYTLPPSRDELTKNQVSLTCLVKGFYPSDIAVEWESNGQPENNYKTTPMVLDSDGSFFLYSKLTVDKSRWQQGNVFSCSVMHEALHNHYTQESLSLSP
light: not shown
Kd [3]: 0.0011 µM

B13: BP564 (antibody, human IgG1, kappa)
heavy: B12 heavy with D235E, I266V, G269S, E274D, G329A, M398P
light: not shown
Kd [11]: 0.0022 µM | KD (IIaH)/KD (IIb) [4]: 454 | KD (IIaR)/KD (IIb) [5]: 26.2

B18: IL6R-BP149/IL6R-L (antibody, human IgG1, kappa)
heavy: B12 heavy with L236Y, I266V, G269S, E270H, G273P, K328A, G329A, R332K, M398P
light: not shown
Kd [1]: 14 µM

B20: IL6R-BP133/IL6R-L (antibody, human IgG1, kappa)
heavy: B2 heavy with E235D, L236Y, P240D, E269S, F330L, A332K
light: not shown
Kd [15]: 69 µM

B22: IL6R-BP119/IL6R-L (antibody, human IgG1, kappa)
heavy: B2 heavy with P240D, E269S, K328M, F330L
light: not shown
Kd [22]: 0.099 µM | KD (IIb) of the parent polypeptide/KD (IIb) of the altered polypeptide [16]: 2.7 fold (parent IL6R-B3/IL6R-L)

B24: IL6R-BP179/IL6R-L (antibody, human IgG1, kappa)
heavy: B2 heavy with G239D, P240D, E269S, P273G, K328A, F330L, A332K
light: not shown
Kd [12]: 18 µM

More lines, now with the values ahead:

Kd [1]: 80 µM
B1: IL6R-BP132/IL6R-L (antibody, human IgG1, kappa)
heavy: B2 heavy with E235D, P240D, E269S, K328A, F330L, A332K
light: not shown

Kd [3]: 0.049 µM | KD (IIaH)/KD (IIb) [4]: 692 | KD (IIaR)/KD (IIb) [5]: 35.4
B3: IL6R-BP556/IL6R-L (antibody, human IgG1, kappa)
heavy: B12 heavy with D235E, G329A, M398P
light: not shown

Kd [11]: 2.1 µM | KD (IIaH)/KD (IIb) [4]: 514 | KD (IIaR)/KD (IIb) [5]: 20
B5: BP505 (antibody, human IgG1, kappa)
heavy: B12 heavy with G269A, E274D, D298Y, G329A, R332A, M398P
light: not shown

Kd [3]: 1.8 µM | KD (IIaH)/KD (IIb) [4]: 696 | KD (IIaR)/KD (IIb) [5]: 35.9
B7: BP549 (antibody, human IgG1, kappa)
heavy: B12 heavy with D235E, I266V, D298Y, G329A, M398P
light: not shown

Kd [7]: 0.0065 µM | Kd [13]: 2.5 µM
B8: IL6R-BP192/IL6R-L (antibody, human IgG1, kappa)
heavy: B12 heavy with D239G, I266V, G269S, E270D, G329A, R332K, M398P
light: not shown

KD (IIb) of the parent polypeptide/KD (IIb) of the altered polypeptide [16]: 2.9 fold (parent IL6R-B3/IL6R-L) | Kd [17]: 340 µM
B11: IL6R-2B171/IL6R-L (antibody, human IgG1, kappa)
heavy: B2 heavy with P240D, E269S, V325L, F330L
light: not shown

Kd [18]: 1.4 µM
B14: IL6R-BP266/IL6R-L (antibody, human IgG1, kappa)
heavy: B12 heavy with I266V, G269S, D298Y, G329A, M398P
light: not shown

Kd [18]: 1.4 µM
B15: IL6R-BP269/IL6R-L (antibody, human IgG1, kappa)
heavy: B12 heavy with D235E, I266V, G269S, G329A, R332A, M398P
light: not shown

KD (IIb) of the parent polypeptide/KD (IIb) of the altered polypeptide [6]: 15.7 fold
B16: IL6R-BP198/IL6R-L (antibody, human IgG1, kappa)
heavy: B2 heavy with E235D, L236Y, P240D, E269S, H270D, P273G, K328A, F330L, A332K
light: not shown

KD (IIb) of the parent polypeptide/KD (IIb) of the altered polypeptide [16]: 3.3 fold (parent IL6R-B3/IL6R-L) | Kd [17]: 32 µM
B17: IL6R-BP107/IL6R-L (antibody, human IgG1, kappa)
heavy: B2 heavy with P240D, E269S, H270E, F330L
light: not shown

KD (IIb) of parent polypeptide/KD (IIb) of altered polypeptide [19]: 507 | KD (IIaH)/KD (IIb) [4]: 566 | KD (IIaR)/KD (IIb) [5]: 30.6
B19: IL6R-BP538/IL6R-L (antibody, human IgG1, kappa)
heavy: B12 heavy with D235E, G269S, D298Y, G329A, M398P
light: not shown

KD (IIaR)/KD (IIb) [20]: 30.3 | KD (IIb) of parent polypeptide/KD (IIb) of altered polypeptide [21]: 1870
B21: IL6R-BP498/IL6R-L (antibody, human IgG1, kappa)
heavy: B12 heavy with G269A, D298Y, G329A, M398L
light: not shown

Kd [23]: 0.035 µM | Kd [24]: 0.85 µM | KD (IIaR) of parent polypeptide/KD (IIaR) of altered polypeptide [25]: 12.9 | Kd [26]: 20 µM
B23: IL6R-BP497/IL6R-L (antibody, human IgG1, kappa)
heavy: B12 heavy with G269A, D298Y, M398P
light: not shown

Kd [22]: 5.6 µM | KD (IIb) of the parent polypeptide/KD (IIb) of the altered polypeptide [16]: 3 fold (parent IL6R-B3/IL6R-L)
B25: IL6R-BP120/IL6R-L (antibody, human IgG1, kappa)
heavy: B2 heavy with P240D, E269S, K328E, F330L
light: not shown
